Measurements published in patent publication US12077763B2, “RNA-based control of powdery mildew” (Greenlight Biosciences, Inc., priority 2021, dated 2024).

B1: GS3352 (nucleic acid)
sense: UGUAGAGGUGAAGUAGGUGAAAGUUGAUUUGGCGAUGGUAGAGAUGAGUUACUAUUACUGAUAGAAGGUAAAUUUGAGUAAGAUUGCAAAUUUCUAUCAGACGCAGCUGACUGAUCAAGAGUUUGCUCUAAUAAGGAUCUUUCAUGAGCUGAAUGCGCAUAUGUCGGUGACAAAUUUUUGGGAUGAUCGAUAAAGAAUUUUUUGGUUGAAUAGUUGCGAGAGAUUCCAGGUUGUAUUGCAGGUGAUGAAGAAGCUGGUGAAGAAAUGUUGCUUGAGUUGUCAAAAUUGCUACUGUUUGAACCAUUUGUUUUUGCGGAAGGAUACGGGAGUGGUUUACCUUCUUUUGCCAUCCGAAAAACUGGAAGUAAAUCCUCUCUAAGUCGUGUAUAUUCGAAUGU
antisense: ACAUUCGAAUAUACACGACUUAGAGAGGAUUUACUUCCAGUUUUUCGGAUGGCAAAAGAAGGUAAACCACUCCCGUAUCCUUCCGCAAAAACAAAUGGUUCAAACAGUAGCAAUUUUGACAACUCAAGCAACAUUUCUUCACCAGCUUCUUCAUCACCUGCAAUACAACCUGGAAUCUCUCGCAACUAUUCAACCAAAAAAUUCUUUAUCGAUCAUCCCAAAAAUUUGUCACCGACAUAUGCGCAUUCAGCUCAUGAAAGAUCCUUAUUAGAGCAAACUCUUGAUCAGUCAGCUGCGUCUGAUAGAAAUUUGCAAUCUUACUCAAAUUUACCUUCUAUCAGUAAUAGUAACUCAUCUCUACCAUCGCCAAAUCAACUUUCACCUACUUCACCUCUACA
B2: GS3356 (nucleic acid)
sense: CUGGGUGAGUUUUUCGUAACGUCGCUACUUUAUUAACUUGAUCUGCCGUGGAUUUUGGUUGUCUUGUAUCAAUCAAAAGGAGAGGAAGCUUCGGAAACUUCAUUAAAGAUCUUAUGAUUGGCUCCUUUGAAUAGUCGGGCCUCUGAAAUAUAACAGCUUUUCCUUGGGAGGCAACAGUGUUAUCUACUCCUGAAGGGUUUCCAUGGAUACAUAUUUCUCCUACAUAAGCCCACAUAUUAAUGCGGCUUAUUUGGGUAUGUGCUUCUUCAAUGGGUUGGUCCUCAUGAGGCCCAGAAAGCGCUCUUACCUGUAAUAAGAGCGCAGCAGCUAGACACACAGUAAUAGAUGCA
antisense: UGCAUCUAUUACUGUGUGUCUAGCUGCUGCGCUCUUAUUACAGGUAAGAGCGCUUUCUGGGCCUCAUGAGGACCAACCCAUUGAAGAAGCACAUACCCAAAUAAGCCGCAUUAAUAUGUGGGCUUAUGUAGGAGAAAUAUGUAUCCAUGGAAACCCUUCAGGAGUAGAUAACACUGUUGCCUCCCAAGGAAAAGCUGUUAUAUUUCAGAGGCCCGACUAUUCAAAGGAGCCAAUCAUAAGAUCUUUAAUGAAGUUUCCGAAGCUUCCUCUCCUUUUGAUUGAUACAAGACAACCAAAAUCCACGGCAGAUCAAGUUAAUAAAGUAGCGACGUUACGAAAAACUCACCCAG
B3: GS3357 (nucleic acid)
sense: GAUCUGGUCGUGGUUUGCCGAAAAGAUUCUUCAUUCCUCCCGUUAUAAGAACGGUGAGUGAUAGUGAAAAGCUUAAUCCAAGCAAUCCAACGUGUAAUUCCCACAUUCUCCGAUGCCAUAUGGCAGAUCUAGGCGUUGACUUUGUAACCGUCGGUCCAGGAACAAGAACUAAGCAAAUAGCAAAAAUAACUAAUGCCGGAAUUAUAAAAGCAUAUAAUCCAAGCCAUCGUACCGAGACUUUUUCAUGUGUUUUAUAGGGAAAGCUGAUAUCUGGGUUCUCCAGCGAGAAGGGUCUUUUGUUUGGUACCCUCGAUCCAACAAAUAAUCCAAAAAAUGCACCAAAUAUAACUACCAGCCAAUCGACAACAUAUGAAAGUACUAGUUUUAAUGA
antisense: UCAUUAAAACUAGUACUUUCAUAUGUUGUCGAUUGGCUGGUAGUUAUAUUUGGUGCAUUUUUUGGAUUAUUUGUUGGAUCGAGGGUACCAAACAAAAGACCCUUCUCGCUGGAGAACCCAGAUAUCAGCUUUCCCUAUAAAACACAUGAAAAAGUCUCGGUACGAUGGCUUGGAUUAUAUGCUUUUAUAAUUCCGGCAUUAGUUAUUUUUGCUAUUUGCUUAGUUCUUGUUCCUGGACCGACGGUUACAAAGUCAACGCCUAGAUCUGCCAUAUGGCAUCGGAGAAUGUGGGAAUUACACGUUGGAUUGCUUGGAUUAAGCUUUUCACUAUCACUCACCGUUCUUAUAACGGGAGGAAUGAAGAAUCUUUUCGGCAAACCACGACCAGAUC
B4: GS3358 (nucleic acid)
sense: UUGGUACUAUGGCCAGGGUCAAUUCAAUUCAAUUUUUUUCUAUCAAAUAAAAUUAAAUCAAAAUAGUUUUCAAUCCAAUCUAACCCAAUCUUAAUCUUAAAAUGUAACUUCAAACAUUGUGAUUCAAGUACUAAUCACACGAGAAACUAGCAACGUUUGAUCUCGCUUUUCGAUCUACUUUAGGUACUUGAUGAAAUUUUCAAAGAUAUUUUGUCAUAAAACCAGUCACUAAGCUUCUUUGCUAUAUAAUUGCACUACGCGACGUCAACAGAUGCUCUUUUCACACUCCUAGUUAUUAAAGCAAUUGAAACAUCUUCUAACUAUAUACAACUUGAAUAUAACUCCAGAUUUGAAUAUAUUCUCCACCAAAAUUUAAUUAGGUUUGCAAUAAAUU
antisense: AAUUUAUUGCAAACCUAAUUAAAUUUUGGUGGAGAAUAUAUUCAAAUCUGGAGUUAUAUUCAAGUUGUAUAUAGUUAGAAGAUGUUUCAAUUGCUUUAAUAACUAGGAGUGUGAAAAGAGCAUCUGUUGACGUCGCGUAGUGCAAUUAUAUAGCAAAGAAGCUUAGUGACUGGUUUUAUGACAAAAUAUCUUUGAAAAUUUCAUCAAGUACCUAAAGUAGAUCGAAAAGCGAGAUCAAACGUUGCUAGUUUCUCGUGUGAUUAGUACUUGAAUCACAAUGUUUGAAGUUACAUUUUAAGAUUAAGAUUGGGUUAGAUUGGAUUGAAAACUAUUUUGAUUUAAUUUUAUUUGAUAGAAAAAAAUUGAAUUGAAUUGACCCUGGCCAUAGUACCAA
B5: GS3359 (nucleic acid)
sense: UUGAGAACAUGACCGAGGCUACUCUAAUCUUAGAUAUGUUUCUCAACAACGAGGGAGCCUUUAACUAUCCUCACAUUUCCUUUCGCAAAAAUUUCCACCCUUUCAACUUCUCUAAAAACAAUUGAUUUGCUUAGACCAUAAGAAUAUUUCAAUAUGAUUAAAACUGAAGCUAAUGGUGAAGGAUUUGAUAUUUCUAUUCCAGAGGUAUCAGUAACUGAGGAACGAAAGCCAUUUGUGCAAAAGGAAGGAUAUCUCAAAUUAAAGCAAGCAGGAACUGCAAGAGCGAAUGAAGCCGCUUCAUACGAAGCUCCACGUGGCACUGUAAAAGGAGAUUACGCAUACCGUCAUCGACAUCAGACAGUACUCCAACAGCAUAUAGCCUUUUUUGAUCAUGAUAA
antisense: UUAUCAUGAUCAAAAAAGGCUAUAUGCUGUUGGAGUACUGUCUGAUGUCGAUGACGGUAUGCGUAAUCUCCUUUUACAGUGCCACGUGGAGCUUCGUAUGAAGCGGCUUCAUUCGCUCUUGCAGUUCCUGCUUGCUUUAAUUUGAGAUAUCCUUCCUUUUGCACAAAUGGCUUUCGUUCCUCAGUUACUGAUACCUCUGGAAUAGAAAUAUCAAAUCCUUCACCAUUAGCUUCAGUUUUAAUCAUAUUGAAAUAUUCUUAUGGUCUAAGCAAAUCAAUUGUUUUUAGAGAAGUUGAAAGGGUGGAAAUUUUUGCGAAAGGAAAUGUGAGGAUAGUUAAAGGCUCCCUCGUUGUUGAGAAACAUAUCUAAGAUUAGAGUAGCCUCGGUCAUGUUCUCAA
B6: GS1799: dsRNA trigger SEQ ID NO 193; gene target Transposon Tf2-6 polyprotein (nucleic acid)
DNA: GTAGCGAGGATGGACACTGGAGAACGGTTCGAAGTATACTTGACAAATTACGAAAAGCTGGGCTATATCTCGATATTGATAAATGTGAGTTTTTATGTAAAGAAGTCAAATATTTGGGGTTTATTGTGAAAGCTGGTAAAAGTGTGGCCGTTGATCAATCGAAGGTGAAGGCCATTCTGGAGTGGGAAGCGCCAACTACGGTTAGAGGGGTAAGATCATTTCTCGGATTCGCCAACTTCTATCGGTGCTTTATTAAGGGATTTTCCGACATTACATCACCCCTAGTTGCCCTGACGAAAAAAAAGGTGGAATGGCGATGGGGGCGTGACGAAAATGATGCGTTTGAAAGGCTCAAAGAAATATTCTCATCACAGCCTGTTTTAGCACAGTGGGATCCAGAGAAGGAAACAATTTTGGAAGCTGATAGTTCTGGCTTTGCAATTGGTGGTTGTCTCTCACAGGTGGATGAACACGGCCAAATAAGACCTGTGGCTTATTTCTCGAAGAAGTTAAATAGTGCCGAAGCTAATTACCCAATCCATGACAAAGAATTACACGCAATAGTCACGTGCTTAAAAGAATGGAAACCAGAGCTAAT
B7: GS3360 (nucleic acid)
sense: CAGUGCUCUCGCAGCAGGCCAUUUAGUCAAGAGCCAUAUGGCACAUAACAGAAGUGCUCCUAUUACAAGAAGUAAUACACCUGCUCAGAUUAGCACACACCCAUCAAUGAUAUCAACAAAUAGCAUGAGAGAAAAAUAUUGAGAUUUGAAAUUCUAAUUGUGUAAAUGAGCUCAGCUAUAUUGAAAAUAAAUUGGUAAUCUAAUAUAGAGGUAGAACUAGUUCGAUUUUUAUACUCAUUAAAAAAAGGAACUAAUAUUGGUAAAGGGUUAAGCUAUGAAAUUAGCUAUCCUUUUUUUUCCUAUUUAUUGAAAA
antisense: UUUUCAAUAAAUAGGAAAAAAAAGGAUAGCUAAUUUCAUAGCUUAACCCUUUACCAAUAUUAGUUCCUUUUUUUAAUGAGUAUAAAAAUCGAACUAGUUCUACCUCUAUAUUAGAUUACCAAUUUAUUUUCAAUAUAGCUGAGCUCAUUUACACAAUUAGAAUUUCAAAUCUCAAUAUUUUUCUCUCAUGCUAUUUGUUGAUAUCAUUGAUGGGUGUGUGCUAAUCUGAGCAGGUGUAUUACUUCUUGUAAUAGGAGCACUUCUGUUAUGUGCCAUAUGGCUCUUGACUAAAUGGCCUGCUGCGAGAGCACUG
B8: GS3361 (nucleic acid)
sense: AAUAAGUGUCUGGAUUGUUGAAUGGGAUUCUUUUUAGUCGAUCAAUUUCAAUUAACUCAUAACGCAGAAAUUUCUUAAAAUUGAACGAUUUAUAGGAACCGAUGUGAAAUUUUCUUCAAUCUCCAUGUCAAUCGCAGAUGUGGGCAAAAAAGAUUGGGAAGAGAAUUCUUAGUUAUAUUUCAUUUGAAUACUAUUGGGGUAAUGCAUGUCCAAAGAGUCUCGUACCAAGAGAUACCUUUAUCUGGAAAUAAUUAGAAGAUUUACCCGUCUUACCUUGAUGAAUUGUGUGUUAGAGAUACACCAUGGCUAAGAUAUUAAUAUCUAUUUAGUUUGGGAAGUUGAUGACGAUACAUCACAGUUCUCUGUAAAUUUUGUUAUUUCCUCUAAUAUCAUUAA
antisense: UUAAUGAUAUUAGAGGAAAUAACAAAAUUUACAGAGAACUGUGAUGUAUCGUCAUCAACUUCCCAAACUAAAUAGAUAUUAAUAUCUUAGCCAUGGUGUAUCUCUAACACACAAUUCAUCAAGGUAAGACGGGUAAAUCUUCUAAUUAUUUCCAGAUAAAGGUAUCUCUUGGUACGAGACUCUUUGGACAUGCAUUACCCCAAUAGUAUUCAAAUGAAAUAUAACUAAGAAUUCUCUUCCCAAUCUUUUUUGCCCACAUCUGCGAUUGACAUGGAGAUUGAAGAAAAUUUCACAUCGGUUCCUAUAAAUCGUUCAAUUUUAAGAAAUUUCUGCGUUAUGAGUUAAUUGAAAUUGAUCGACUAAAAAGAAUCCCAUUCAACAAUCCAGACACUUAUU

System: E. necator
Experiment: Leaf disc assay, dry inoculum (settling tower), decrease in disease severity / hyphal growth (Example 2)
Settings: decrease in disease severity (hyphal growth) relative to untreated control, value ± SE; for % decrease =/− SE TP1: time point 1 (untreated control hyphal growth ≥50%); for % decrease =/− SE TP2: time point 2

Molecule	% decrease =/− SE TP1 [%]	% decrease =/− SE TP2 [%]
B1	6 ± 4	–
B2	5 ± 5	–
B3	9 ± 6	7 ± 6
B4	6 ± 4	–
B5	14 ± 4	–
B6	16 ± 5	8 ± 6
B7	36 ± 4	30 ± 5
B8	16 ± 3	–
